The source of these data is patent publication US12098175B2, “Peptide inhibitors targeting the CXCL12/HMGB1 interaction and uses thereof” (INSTITUTE FOR RESEARCH IN BIOMEDICINE, priority 2019, dated 2024).

Data set [1] deals with T1, CXCL12/HMGB1 heterocomplex (Homo sapiens, UniProt P09429).
T1 sequence (P09429 1-215): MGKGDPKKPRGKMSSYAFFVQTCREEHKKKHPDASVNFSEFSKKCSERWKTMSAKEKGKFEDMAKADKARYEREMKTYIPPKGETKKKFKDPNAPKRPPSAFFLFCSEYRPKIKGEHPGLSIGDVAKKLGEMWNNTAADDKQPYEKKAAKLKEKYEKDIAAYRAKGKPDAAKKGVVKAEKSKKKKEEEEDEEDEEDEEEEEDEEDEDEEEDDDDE
Nature of the data set: In vitro chemotaxis (Boyden chamber): CXCL12/HMGB1-induced migration of 300.19 PreB cells expressing human CXCR4. In kind it is cell-based, murine. To be noted: peptides at 100 μM; CXCL12 1 nM, HMGB1 300 nM; compared with glycyrrhizin 200 μM; 300.19 PreB cells with human CXCR4. Here is the method:
The 13 identified and synthesized peptides were tested in in vitro chemotaxis, to assess their efficacy as inhibitors of the CXCL12/HMGB1-induced migration, on a murine cell line expressing the human CXCR4.
All peptides, at 100 μM, were incubated with CXCL12 and HMGB1 before assessing chemotaxis, to evaluate their ability to interfere with the heterocomplex formation, and inhibit the synergistic effect of HMGB1.

Another data set addresses CXCL12 (Homo sapiens, UniProt P48061). The data set can be described thus: In vitro chemotaxis: migration induced by CXCL12 alone, 300.19 PreB cells expressing human CXCR4. The data set is classed as cell-based, murine. The conditions noted are these: peptides at 100 μM; CXCL12 1 nM; 300.19 PreB cells with human CXCR4. The procedure: Further experiments were performed with CXCL12 alone to identify peptides affecting cell migration induced by CXCL12 alone.
Briefly, chemotaxis was performed using Boyden chambers with 5 μm pore membranes. […] 200 μM glycyrrhizin were used as positive control.

In data set [2] the target is T2, HMGB1 (Homo sapiens, UniProt P09429).
T2 sequence (P09429 1-215): T1 sequence (P09429 1-215)
Nature of the data set: Binding affinity to HMGB1 by microscale thermophoresis (MST). The conditions noted are these: for Kd (μM), equilibrium dissociation constant: MST, Example 6 (Table 4), highest peptide concentration 500 μM. For orientation: Microscale thermophoresis detects binding through changes in fluorescence in a small temperature gradient.
Experimental: The protein and the peptide were incubated for 15 minutes at room temperature, to allow binding. MST analysis was performed using premium-coated capillary tubes on a NanoTemper® instrument using the following experimental settings: LED power of 5% (for fluorescence excitation), and laser power 40% (to create temperature gradient). Kd values were calculate from compound concentration-dependent changes in normalized fluorescence (Fnorm). Independent experiments were performed to calculate the Kd value. Data were analyzed by the NanoTemper® analysis software.
MST analysis was performed using premium-coated capillary tubes on a NanoTemper instrument using the following experimental settings: LED power of 5% (for fluorescence excitation), and laser power 40% (to create temperature gradient). Kd values were calculated from compound concentration-dependent changes in normalized fluorescence (Fnorm). Independent experiments were performed to calculate the Kd value. Data were analyzed by the NanoTemper analysis software.

Another data set is described as follows: Solubility in PBS. In kind it is physicochemical.
Data set [3] has as its target T2, HMGB1. The conditions noted are these: literature value (Mollica et al. 2007); read-out: Kd reported for glycyrrhizin; cited from earlier work.

For orientation: Kd means the concentration at which binding is half-saturated.

Read-outs that look alike come from different tables or passages of the source. Where no end group is shown, it is not given here.

CXCL12, sequence (P48061 22-93, species assumed): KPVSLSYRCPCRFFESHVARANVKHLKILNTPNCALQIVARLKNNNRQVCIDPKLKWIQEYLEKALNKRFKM

Take HWTLANWCR (HBP07): the “Inhibition of the enhanced migration induced by the CXCL12/HMGB1 heterocomplex” value (“Inhibition … by the CXCL12/HMGB1 heterocomplex” below) in data set [1] is “inhibit the enhanced migration induced by the CXCL12/HMGB1 heterocomplex more than glycyrrhizin at 200 μM”. The “Effect on cell migration induced by CXCL12 alone” value (from here on “Effect on cell migration induced”) in the data set with CXCL12 is given as “do not affect CXCL12-induced cell migration”.

Compound ERWIH [Pentapept-2, ERWIH] registered a Kd at HMGB1 [2] of 200 ± 80 µM.

On to YHICWYGDY (HBP12), for which the “Inhibition … by the CXCL12/HMGB1 heterocomplex” value in data set [1] is listed as “inhibit the enhanced migration induced by the CXCL12/HMGB1 heterocomplex more than glycyrrhizin at 200 μM”. Moreover, the “Effect on cell migration induced” value with CXCL12 is recorded as “inhibit the migration induced by the chemokine alone”.

On to GYHYEAWIH [HBP08-A6], for which, in “Solubility in PBS”, the Solubility result is reported as “poorly soluble”.

Consider GYHYE [Pentapept-1], for which the figures for the “Kd (μM), equilibrium dissociation constant” value at HMGB1 [2] and at HMGB1 [2] (listed as pentapept-1) were “No binding*” and “no binding was observed”, respectively.

For `CC1(C)[C@@H](O[C@H]2O[C@H](C(=O)O)[C@@H](O)[C@H](O)[C@H]2O[C@@H]2O[C@H](C(=O)O)[C@@H](O)[C@H](O)[C@H]2O)CC[C@]2(C)[C@H]3C(=O)C=C4[C@@H]5C[C@@](C)(C(=O)O)CC[C@]5(C)CC[C@@]4(C)[C@]3(C)CC[C@@H]12` [glycyrrhizin], the dissociation constant Kd on HMGB1 [3] was 125 µM.

Regarding WISNWILMW (HBP05), in data set [1], the “Inhibition … by the CXCL12/HMGB1 heterocomplex” value is reported as “inhibit the enhanced migration induced by the CXCL12/HMGB1 heterocomplex more than glycyrrhizin at 200 μM”. Further, the “Effect on cell migration induced” value with CXCL12 is given as “inhibit the migration induced by the chemokine alone”.
